In US20160046724A1 (Novartis, published 2016):

T1: BCMA-Fc antigen (UniProt Q02223 5-51, limits assumed)
T1 construct: Bought reagent; also called BCMA fc fusion protein; recombinant BCMA-Fc; not shown: Fc region
T1 chain (looked up): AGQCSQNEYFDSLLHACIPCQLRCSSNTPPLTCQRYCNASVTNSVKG

B1: BCMA-1 CAR (other)
chain: QVQLVQSGAEVRKTGASVKVSCKASGYIFDNFGINWVRQAPGQGLEWMGWINPKNNNTNYAQKFQGRVTITADESTNTAYMEVSSLRSEDTAVYYCARGPYYYQSYMDVWGQGTMVTVSSASGGGGSGGRASGGGGSDIVMTQTPLSLPVTPGEPASISCRSSQSLLHSNGYNYLNWYLQKPGQSPQLLIYLGSKRASGVPDRFSGSGSGTDFTLHITRVGAEDVGVYYCMQALQTPYTFGQGTKLEIKTTTPAPRPPTPAPTIASQPLSLRPEACRPAAGGAVHTRGLDFACDIYIWAPLAGTCGVLLLSLVITLYCKRGRKKLLYIFKQPFMRPVQTTQEEDGCSCRFPEEEEGGCELRVKFSRSADAPAYKQGQNQLYNELNLGRREEYDVLDKRRGRDPEMGGKPRRKNPQEGLYNELQKDKMAEAYSEIGMKGERRRGKGHDGLYQGLSTATKDTYDALHMQALPPR
notes: also called 139100 Full CAR; ER95-03VA
B2: BCMA-2 CAR (other)
chain: QVQLQESGGGLVQPGGSLRLSCAASGFTFSSDAMTWVRQAPGKGLEWVSVISGSGGTTYYADSVKGRFTISRDNSKNTLYLQMNSLRAEDTAVYYCAKLDSSGYYYARGPRYWGQGTLVTVSSASGGGGSGGRASGGGGSDIQLTQSPSSLSASVGDRVTITCRASQSISSYLNWYQQKPGKAPKLLIYGASTLASGVPARFSGSGSGTHFTLTINSLQSEDSATYYCQQSYKRASFGQGTKVEIKTTTPAPRPPTPAPTIASQPLSLRPEACRPAAGGAVHTRGLDFACDIYIWAPLAGTCGVLLLSLVITLYCKRGRKKLLYIFKQPFMRPVQTTQEEDGCSCRFPEEEEGGCELRVKFSRSADAPAYKQGQNQLYNELNLGRREEYDVLDKRRGRDPEMGGKPRRKNPQEGLYNELQKDKMAEAYSEIGMKGERRRGKGHDGLYQGLSTATKDTYDALHMQALPPR
notes: also called 139101 Full CAR; UR96-08PA
B3: BCMA-3 CAR (other)
chain: QVQLVQSGAEVKKPGASVKVSCKASGYTFSNYGITWVRQAPGQGLEWMGWISAYNGNTNYAQKFQGRVTMTRNTSISTAYMELSSLRSEDTAVYYCARGPYYYYMDVWGKGTMVTVSSASGGGGSGGRASGGGGSEIVMTQSPLSLPVTPGEPASISCRSSQSLLYSNGYNYVDWYLQKPGQSPQLLIYLGSNRASGVPDRFSGSGSGTDFKLQISRVEAEDVGIYYCMQGRQFPYSFGQGTKVEIKTTTPAPRPPTPAPTIASQPLSLRPEACRPAAGGAVHTRGLDFACDIYIWAPLAGTCGVLLLSLVITLYCKRGRKKLLYIFKQPFMRPVQTTQEEDGCSCRFPEEEEGGCELRVKFSRSADAPAYKQGQNQLYNELNLGRREEYDVLDKRRGRDPEMGGKPRRKNPQEGLYNELQKDKMAEAYSEIGMKGERRRGKGHDGLYQGLSTATKDTYDALHMQALPPR
notes: Chimeric antigen receptor; 0.0 % CAR+ on JNL cells by BCMA-Fc detection; also called 139102 Full CAR; KR98-03KA
B4: BCMA-4 CAR (other)
chain: QVQLVESGGGLVQPGRSLRLSCAASGFTFSNYAMSWVRQAPGKGLGWVSGISRSGENTYYADSVKGRFTISRDNSKNTLYLQMNSLRDEDTAVYYCARSPAHYYGGMDVWGQGTTVTVSSASGGGGSGGRASGGGGSDIVLTQSPGTLSLSPGERATLSCRASQSISSSFLAWYQQKPGQAPRLLIYGASRRATGIPDRFSGSGSGTDFTLTISRLEPEDSAVYYCQQYHSSPSWTFGQGTKLEIKTTTPAPRPPTPAPTIASQPLSLRPEACRPAAGGAVHTRGLDFACDIYIWAPLAGTCGVLLLSLVITLYCKRGRKKLLYIFKQPFMRPVQTTQEEDGCSCRFPEEEEGGCELRVKFSRSADAPAYKQGQNQLYNELNLGRREEYDVLDKRRGRDPEMGGKPRRKNPQEGLYNELQKDKMAEAYSEIGMKGERRRGKGHDGLYQGLSTATKDTYDALHMQALPPR
notes: also called 139103 Full CAR; JF32-78IB
B5: BCMA-5 CAR (other)
chain: EVQLLETGGGLVQPGGSLRLSCAVSGFALSNHGMSWVRRAPGKGLEWVSGIVYSGSTYYAASVKGRFTISRDNSRNTLYLQMNSLRPEDTAIYYCSAHGGESDVWGQGTTVTVSSASGGGGSGGRASGGGGSEIVLTQSPATLSVSPGESATLSCRASQSVSSNLAWYQQKPGQAPRLLIYGASTRASGIPDRFSGSGSGTDFTLTISSLQAEDVAVYYCQQYGSSLTFGGGTKVEIKTTTPAPRPPTPAPTIASQPLSLRPEACRPAAGGAVHTRGLDFACDIYIWAPLAGTCGVLLLSLVITLYCKRGRKKLLYIFKQPFMRPVQTTQEEDGCSCRFPEEEEGGCELRVKFSRSADAPAYKQGQNQLYNELNLGRREEYDVLDKRRGRDPEMGGKPRRKNPQEGLYNELQKDKMAEAYSEIGMKGERRRGKGHDGLYQGLSTATKDTYDALHMQALPPR
notes: also called 139104 Full CAR; AR99-08FA
B6: BCMA-7 CAR (other)
chain: EVQLVETGGGLVQPGGSLRLSCAVSGFALSNHGMSWVRRAPGKGLEWVSGIVYSGSTYYAASVKGRFTISRDNSRNTLYLQMNSLRPEDTAIYYCSAHGGESDVWGQGTTVTVSSASGGGGSGGRASGGGGSEIVMTQSPATLSVSPGERATLSCRASQSVSSKLAWYQQKPGQAPRLLMYGASIRATGIPDRFSGSGSGTEFTLTISSLEPEDFAVYYCQQYGSSSWTFGQGTKVEIKTTTPAPRPPTPAPTIASQPLSLRPEACRPAAGGAVHTRGLDFACDIYIWAPLAGTCGVLLLSLVITLYCKRGRKKLLYIFKQPFMRPVQTTQEEDGCSCRFPEEEEGGCELRVKFSRSADAPAYKQGQNQLYNELNLGRREEYDVLDKRRGRDPEMGGKPRRKNPQEGLYNELQKDKMAEAYSEIGMKGERRRGKGHDGLYQGLSTATKDTYDALHMQALPPR
notes: also called 139106 Full CAR; QR91-12ZA
B7: BCMA-9 CAR (other)
chain: QVQLVESGGGLVKPGGSLRLSCAASGFTFSDYYMSWIRQAPGKGLEWVSYISSSGSTIYYADSVKGRFTISRDNAKNSLYLQMNSLRAEDTAVYYCARESGDGMDVWGQGTTVTVSSASGGGGSGGRASGGGGSDIQMTQSPSSLSASVGDRVTITCRASQSISSYLNWYQQKPGKAPKLLIYAASSLQSGVPSRFSGSGSGTDFTLTISSLQPEDFATYYCQQSYTLAFGQGTKVDIKTTTPAPRPPTPAPTIASQPLSLRPEACRPAAGGAVHTRGLDFACDIYIWAPLAGTCGVLLLSLVITLYCKRGRKKLLYIFKQPFMRPVQTTQEEDGCSCRFPEEEEGGCELRVKFSRSADAPAYKQGQNQLYNELNLGRREEYDVLDKRRGRDPEMGGKPRRKNPQEGLYNELQKDKMAEAYSEIGMKGERRRGKGHDGLYQGLSTATKDTYDALHMQALPPR
notes: also called 139108 Full CAR; OG62-93QB
B8: BCMA-11 CAR (other)
chain: QVQLVQSGGGLVKPGGSLRLSCAASGFTFSDYYMSWIRQAPGKGLEWVSYISSSGNTIYYADSVKGRFTISRDNAKNSLYLQMNSLRAEDTAVYYCARSTMVREDYWGQGTLVTVSSASGGGGSGGRASGGGGSDIVLTQSPLSLPVTLGQPASISCKSSESLVHNSGKTYLNWFHQRPGQSPRRLIYEVSNRDSGVPDRFTGSGSGTDFTLKISRVEAEDVGVYYCMQGTHWPGTFGQGTKLEIKTTTPAPRPPTPAPTIASQPLSLRPEACRPAAGGAVHTRGLDFACDIYIWAPLAGTCGVLLLSLVITLYCKRGRKKLLYIFKQPFMRPVQTTQEEDGCSCRFPEEEEGGCELRVKFSRSADAPAYKQGQNQLYNELNLGRREEYDVLDKRRGRDPEMGGKPRRKNPQEGLYNELQKDKMAEAYSEIGMKGERRRGKGHDGLYQGLSTATKDTYDALHMQALPPR
notes: also called 139110 Full CAR; UG65-93FB
B9: BCMA-12 CAR (other)
chain: EVQLLESGGGLVQPGGSLRLSCAVSGFALSNHGMSWVRRAPGKGLEWVSGIVYSGSTYYAASVKGRFTISRDNSRNTLYLQMNSLRPEDTAIYYCSAHGGESDVWGQGTTVTVSSASGGGGSGGRASGGGGSDIVMTQTPLSLSVTPGQPASISCKSSQSLLRNDGKTPLYWYLQKAGQPPQLLIYEVSNRFSGVPDRFSGSGSGTDFTLKISRVEAEDVGAYYCMQNIQFPSFGGGTKLEIKTTTPAPRPPTPAPTIASQPLSLRPEACRPAAGGAVHTRGLDFACDIYIWAPLAGTCGVLLLSLVITLYCKRGRKKLLYIFKQPFMRPVQTTQEEDGCSCRFPEEEEGGCELRVKFSRSADAPAYKQGQNQLYNELNLGRREEYDVLDKRRGRDPEMGGKPRRKNPQEGLYNELQKDKMAEAYSEIGMKGERRRGKGHDGLYQGLSTATKDTYDALHMQALPPR
notes: also called 139111 Full CAR; HU13-58ZB
B10: BCMA-13 CAR (other)
chain: QVQLVESGGGLVQPGGSLRLSCAVSGFALSNHGMSWVRRAPGKGLEWVSGIVYSGSTYYAASVKGRFTISRDNSRNTLYLQMNSLRPEDTAIYYCSAHGGESDVWGQGTTVTVSSASGGGGSGGRASGGGGSDIRLTQSPSPLSASVGDRVTITCQASEDINKFLNWYHQTPGKAPKLLIYDASTLQTGVPSRFSGSGSGTDFTLTINSLQPEDIGTYYCQQYESLPLTFGGGTKVEIKTTTPAPRPPTPAPTIASQPLSLRPEACRPAAGGAVHTRGLDFACDIYIWAPLAGTCGVLLLSLVITLYCKRGRKKLLYIFKQPFMRPVQTTQEEDGCSCRFPEEEEGGCELRVKFSRSADAPAYKQGQNQLYNELNLGRREEYDVLDKRRGRDPEMGGKPRRKNPQEGLYNELQKDKMAEAYSEIGMKGERRRGKGHDGLYQGLSTATKDTYDALHMQALPPR
notes: also called 139112 Full CAR; KG66-98AB
B11: BCMA-14 CAR (other)
chain: EVQLVETGGGLVQPGGSLRLSCAVSGFALSNHGMSWVRRAPGKGLEWVSGIVYSGSTYYAASVKGRFTISRDNSRNTLYLQMNSLRPEDTAIYYCSAHGGESDVWGQGTTVTVSSASGGGGSGGRASGGGGSETTLTQSPATLSVSPGERATLSCRASQSVGSNLAWYQQKPGQGPRLLIYGASTRATGIPARFSGSGSGTEFTLTISSLQPEDFAVYYCQQYNDWLPVTFGQGTKVEIKTTTPAPRPPTPAPTIASQPLSLRPEACRPAAGGAVHTRGLDFACDIYIWAPLAGTCGVLLLSLVITLYCKRGRKKLLYIFKQPFMRPVQTTQEEDGCSCRFPEEEEGGCELRVKFSRSADAPAYKQGQNQLYNELNLGRREEYDVLDKRRGRDPEMGGKPRRKNPQEGLYNELQKDKMAEAYSEIGMKGERRRGKGHDGLYQGLSTATKDTYDALHMQALPPR
notes: also called 139113 Full CAR; HJ64-62PB

Molecular target: T1, BCMA-Fc antigen
Experiment: flow cytometry of CAR-transduced JNL cells stained with BCMA-Fc antigen
Protocol: Jurkat-NFAT-luciferase (JNL) cells transduced with BCMA CAR constructs were evaluated for activation in response to BCMA-expressing target cell lines. Small-scale viral supernatant samples were generated in HEK293T cells for transduction of JNL cells. On Day 3 following transduction, BCMA CAR-transduced JNL cells were incubated with target cells at an effector-to-target (E:T) ratio of 6:1. Target cell lines were: K562-BCMA (engineered to stably express BCMA), K562 (parental line), and BCMA positive multiple myeloma cell lines, NCI-H929 and RPMI 8226. JNL activation was measured using Bright-Glo substrate (Promega) on Day 4. CAR expression on transduced JNL was assessed on Day 7 with BCMA-Fc antigen and Biotin-Protein L reagent (Table 7).

Row | Binder | % CAR+ (BCMA-Fc detection)
1 | B1 | 72.1%
2 | B2 | 32%
3 | B3 | 0%
4 | B4 | 49.5%
5 | B5 | 28.9%
6 | B6 | 30.4%
7 | B7 | 54.7%
8 | B8 | 42.7%
9 | B9 | 23.4%
10 | B10 | 32.7%
11 | B11 | 31.8%
